Data as given in patent US20160215026A1.

How the values were obtained:
[1] = biological target: human immunoglobulin G drug separated from human plasma (human); experiment: SPR, Biacore 3000, human IgG immobilized on CM5, peptide as analyte, 25 C, pH 7.4, 1:1 model
[2] = biological target: human immunoglobulin G drug separated from human plasma (human); experiment: SPR, Biacore 3000, human IgG immobilized; reference C-G29A/S33E.1d

| Ka [1] [M⁻¹] | koff [1] [s⁻¹] | kon [1] [M⁻¹ s⁻¹] | affinity constant KA relative to C-G29A/S33E.1d [2] [fold] | Substance |
| --- | --- | --- | --- | --- |
| 3.9e+07 | 0.00709 | 276000 |  | C-G29A/S33E/K7E/A46E.1d (designed binder) |
| 5.7e+06 | 0.00519 | 29000 | 0.1 | C-G29A/S33E/K7E/H18D/V40D/A46D/Q55E.1d (designed binder) |
